Reference: patent publication EP2103936A1

Columns and labels:
[1] = target: bt-MalE (Escherichia coli) [MBP: P0AEX9]; assay: Biacore kinetics, bt-MalE on SA chip, buffer M2 (no reducing agent), heterogeneous analyte model, population 2 (kon2), taken as the non-coupled molecules of the N45ANBD preparation
[2] = target: bt-MalE (Escherichia coli) [MBP: P0AEX9]; assay: Biacore kinetics, bt-MalE on streptavidin SA chip, buffer M3 (5 mM DTT), 25 °C, Langmuir model
[3] = target: bt-MalE (Escherichia coli) [MBP: P0AEX9]; assay: Biacore kinetics, bt-MalE on SA chip, buffer M2 (no reducing agent), heterogeneous analyte model, population 2 (kon2), taken as the non-coupled molecules of the R23ANBD preparation
[4] = target: bt-MalE (Escherichia coli) [MBP: P0AEX9]; assay: Biacore kinetics, bt-MalE on SA chip, buffer M2 (no reducing agent), heterogeneous analyte model, population 2 (kon2), taken as the non-coupled molecules of the T46ANBD preparation, possibly dimeric
[5] = target: bt-MalE (Escherichia coli) [MBP: P0AEX9]; assay: Biacore kinetics, bt-MalE on SA chip, buffer M2 (no reducing agent), heterogeneous analyte model, population 2 (kon2), taken as the non-coupled molecules of the L53ANBD preparation

Substance: DarpOff7(N45C) (designed binder)
- kon [1]: 240000 M⁻¹ s⁻¹
- kon [2]: 290000 M⁻¹ s⁻¹

Substance: DarpOff7(R23C) (designed binder)
- kon [2]: 410000 M⁻¹ s⁻¹
- kon [3]: 430000 M⁻¹ s⁻¹

Substance: DarpOff7(T46C) (designed binder)
- kon [4]: 18000 M⁻¹ s⁻¹
- kon [2]: 170000 M⁻¹ s⁻¹

Substance: DarpOff7(L53C) (designed binder)
- kon [5]: 580000 M⁻¹ s⁻¹
- kon [2]: 370000 M⁻¹ s⁻¹
